The RNAGym collection of RNA variant scans (doi:10.7554/elife.90254)

B1: LINE1-mini (parent)
chain: GGCAGAGCUCAACACAGCGUGGCAAAGUGGCUGUGGCUAGACUGCC

Variants of: B1
Assay: self-cleavage, relative activity (ratio to wild type); higher = more cleavage; in vitro, sequencing; the parent is a self-cleaving ribozyme

First: C13U G36C
Second: C13U G36A
The self-cleavage of the first is lower: 0.11 for the first, 0.63 for the second.

Going from C13U G36U to A14U A24G, the self-cleavage rises from 0.15 to 0.79.

First: A14U A24C
Second: A14U A24U
The self-cleavage of the first is lower: 0.15 for the first, 0.42 for the second.

Going from A14G C45G to A14G C45U, the self-cleavage rises from 0.2 to 0.63.

First: A14G C45A
Second: A14C G21A
The self-cleavage of the first is higher: 0.38 for the first, 0.17 for the second.

Compared with A14C G21U, A14C G21C is lower in self-cleavage: 0.07 for the first, 0.05 for the second.

Compared with C13U G44C, C13U G44U is higher in self-cleavage: 0.06 for the first, 0.1 for the second.

Compared with C13U G44A, A14C U38C is lower in self-cleavage: 0.1 for the first, 0.07 for the second.

Going from A14C U38A to A14C U38G, the self-cleavage falls from 0.21 to 0.02.

Compared with A14G A16C, A14G A16U is lower in self-cleavage: 0.08 for the first, 0.06 for the second.

Compared with A14G A16G, A14G A25C is higher in self-cleavage: 0.1 for the first, 0.18 for the second.

First: A14G A25G
Second: A14G A25U
The self-cleavage of the first is lower: 0.32 for the first, 0.53 for the second.

A14U A16U and A14U A16C are the same in self-cleavage: 0.1 for the first, 0.1 for the second.

First: A14U A16G
Second: A14C U28A
The self-cleavage of the first is higher: 0.09 for the first, 0.03 for the second.

A14C U28C and A14C U28G are the same in self-cleavage: 0.07 for the first, 0.07 for the second.

Compared with A14G G44U, A14G G44A is higher in self-cleavage: 0.19 for the first, 0.22 for the second.

First: A14G G44C
Second: A14C G40A
The self-cleavage of the first is higher: 0.19 for the first, 0.09 for the second.

First: A14C G40C
Second: A14C G40U
The self-cleavage of the first is lower: 0.04 for the first, 0.07 for the second.

First: C13U C15U
Second: C13U C15G
The self-cleavage of the first is higher: 0.13 for the first, 0.08 for the second.

Going from A14G C18A to A14G C18G, the self-cleavage rises from 0.2 to 0.21.

Going from A14G C18U to C13U U43A, the self-cleavage falls from 0.42 to 0.1.

Going from C13U U43G to C13U U43C, the self-cleavage falls from 2.25 to 0.1.

Going from A14C G33A to A14C G33C, the self-cleavage falls from 0.06 to 0.03.

Compared with A14C G33U, C13U G40C is higher in self-cleavage: 0.05 for the first, 0.08 for the second.

Going from C13U G40A to C13U G40U, the self-cleavage falls from 0.1 to 0.09.

Going from A14C C18U to A14C C18A, the self-cleavage falls from 0.07 to 0.05.

First: A14C C18G
Second: A14G G19C
The self-cleavage of the first is lower: 0.05 for the first, 0.25 for the second.

First: A14G G19U
Second: A14G G19A
The self-cleavage of the first is lower: 0.54 for the first, 1.03 for the second.

First: A14G G21U
Second: A14G G21C
The self-cleavage of the first is higher: 0.79 for the first, 0.24 for the second.

First: A14G G21A
Second: A14G G36A
The self-cleavage of the first is higher: 0.71 for the first, 0.26 for the second.

Compared with A14G G36U, A14G G36C is lower in self-cleavage: 0.12 for the first, 0.07 for the second.

Compared with A14C C15A, A14C C15U is lower in self-cleavage: 0.08 for the first, 0.07 for the second.

Going from A14C C15G to A14C G22C, the self-cleavage rises from 0.02 to 0.1.

First: A14C G22A
Second: A14C G22U
The self-cleavage of the first is higher: 0.18 for the first, 0.06 for the second.

Compared with A14G A41G, A14G A41U is higher in self-cleavage: 0.16 for the first, 0.77 for the second.

Compared with A14G A41C, A14U C31G is lower in self-cleavage: 0.05 for the first, 0.04 for the second.

Compared with A14U C31A, A14U C31U is lower in self-cleavage: 0.06 for the first, 0.04 for the second.

Compared with A14G G30C, A14G G30U is higher in self-cleavage: 0.24 for the first, 0.34 for the second.

First: A14G G30A
Second: C13U G33C
The self-cleavage of the first is higher: 0.28 for the first, 0.06 for the second.

First: C13U G33A
Second: C13U G33U
The self-cleavage of the first is higher: 0.07 for the first, 0.06 for the second.

Going from A14C G29A to A14C G29U, the self-cleavage falls from 0.29 to 0.13.

First: A14C G29C
Second: A14G U34G
The self-cleavage of the first is lower: 0.04 for the first, 0.3 for the second.

First: A14G U34C
Second: A14G U34A
The self-cleavage of the first is higher: 0.61 for the first, 0.16 for the second.

Compared with A14G C46A, A14G C46U is higher in self-cleavage: 0.2 for the first, 0.26 for the second.

First: A14G C46G
Second: A14G G29U
The self-cleavage of the first is lower: 0.14 for the first, 0.29 for the second.

Going from A14G G29C to A14G G29A, the self-cleavage rises from 0.37 to 0.78.

Going from C13U C18A to C13U C18U, the self-cleavage rises from 0.07 to 0.12.

First: C13U C18G
Second: A14G A26G
The self-cleavage of the first is lower: 0.05 for the first, 0.43 for the second.

First: A14G A26U
Second: A14G A26C
The self-cleavage of the first is lower: 0.59 for the first, 0.67 for the second.

Compared with A14G U20C, A14G U20G is lower in self-cleavage: 0.78 for the first, 0.15 for the second.

Going from A14G U20A to A14C G30U, the self-cleavage falls from 0.23 to 0.07.

Compared with A14C G30C, A14C G30A is higher in self-cleavage: 0.07 for the first, 0.21 for the second.

A14C U20C and A14C U20A are the same in self-cleavage: 0.08 for the first, 0.08 for the second.

Compared with A14C U20G, C13U U20A is higher in self-cleavage: 0.1 for the first, 0.17 for the second.

Going from C13U U20C to C13U U20G, the self-cleavage rises from 0.09 to 0.1.

First: C13U G17C
Second: C13U G17U
The self-cleavage of the first is lower: 0.11 for the first, 0.12 for the second.

Going from C13U G17A to A14G C15A, the self-cleavage falls from 0.1 to 0.08.

Going from A14G C15G to A14G C15U, the self-cleavage rises from 0.08 to 0.11.

Compared with A14G U38C, A14G U38G is lower in self-cleavage: 0.15 for the first, 0.01 for the second.

First: A14G U38A
Second: A14G A39U
The self-cleavage of the first is higher: 0.52 for the first, 0.37 for the second.

First: A14G A39C
Second: A14G A39G
The self-cleavage of the first is higher: 0.39 for the first, 0.1 for the second.

Going from A14C C37U to A14C C37G, the self-cleavage rises from 0.02 to 0.11.

Going from A14C C37A to A14G G27A, the self-cleavage rises from 0.08 to 0.83.

First: A14G G27U
Second: A14G G27C
The self-cleavage of the first is lower: 0.42 for the first, 0.61 for the second.

Compared with A14G A24G, A14G A24U is lower in self-cleavage: 0.76 for the first, 0.43 for the second.

Going from A14G A24C to A14C G27C, the self-cleavage falls from 0.27 to 0.07.

A14C G27A and A14C G27U are the same in self-cleavage: 0.09 for the first, 0.09 for the second.

Compared with A14C A41C, A14C A41U is higher in self-cleavage: 0.04 for the first, 0.06 for the second.

Compared with A14C A41G, C13U G21A is higher in self-cleavage: 0.05 for the first, 0.22 for the second.

Going from C13U G21U to C13U G21C, the self-cleavage rises from 0.18 to 0.25.

First: A14U C18U
Second: A14U C18A
The self-cleavage of the first is lower: 0.08 for the first, 0.11 for the second.

Compared with A14U C18G, A14C U34C is lower in self-cleavage: 0.19 for the first, 0.07 for the second.

First: A14C U34G
Second: A14C U34A
The self-cleavage of the first is higher: 0.26 for the first, 0.07 for the second.

First: A14U C42U
Second: A14U C42A
The self-cleavage of the first is lower: 0.2 for the first, 0.21 for the second.

First: A14U C42G
Second: C13U C31A
The self-cleavage of the first is higher: 0.1 for the first, 0.05 for the second.

Going from C13U C31G to C13U C31U, the self-cleavage rises from 0.08 to 0.12.

C13U C42A and C13U C42U are the same in self-cleavage: 0.09 for the first, 0.09 for the second.

First: C13U C42G
Second: A14U C23A
The self-cleavage of the first is lower: 0.08 for the first, 0.65 for the second.

Compared with A14U C23G, A14U C23U is higher in self-cleavage: 0.15 for the first, 0.31 for the second.

C13U G27U and C13U G27A are the same in self-cleavage: 0.17 for the first, 0.17 for the second.

Going from C13U G27C to C13U G19U, the self-cleavage rises from 0.06 to 0.23.

Compared with C13U G19A, C13U G19C is lower in self-cleavage: 0.16 for the first, 0.07 for the second.

Going from A14C C31U to A14C C31A, the self-cleavage rises from 0.02 to 0.07.

In the case of A14C C31G, the self-cleavage is reported as 0.03.
